The assay addresses vascular endothelial growth factor (VEGF)-A, isoform 165 (Homo sapiens, UniProt P15692-4). The assay is described as follows: SPR. On the technique in general: Surface plasmon resonance follows binding to a sensor surface in real time, without labels.

Where a chain is given by its changes, count along the chain named.

B1: bH1 Fab variant Y^H33-M^H98-M^H99-R^L30b (Fab, V domains shown)
VH: not shown
VL: DIQMTQSPSSLSASVGDRVTITCRASQDIPRRISGYVAWYQQKPGKAPKLLIYWGSYLYSGVPSRFSGSGSGTDFTLTISSLQPEDFATYYCQQHYTTPPTFGQGTKVEIK
For the molecule B1, the “ΔΔG_bind against the parental Fab” value is -7.15 kJ/mol.

B2: bH1 Fab variant W^H33-M^H98-D^H99-R^L30b (Fab, V domains shown)
VH: EVQLVESGGGLVQPGGSLRLSCAASGFNIKDTWIHWVRQAPGKGLEWVARIYPTNGYTRYADSVKGRFTISADTSKNTAYLQMNSLRAEDTAVYYCSRWGGMDFYAMDYWGQGTLVTVSS
VL: B1 VL
For the molecule B2, the “ΔΔG_bind against the parental Fab” value is -7.91 kJ/mol.

B3: bH1 Fab variant W^H33-F^H98-D^H99-R^L30b (Fab, V domains shown)
VH: B2 VH with M102F
VL: B1 VL
Consider B3, for which the “ΔΔG_bind against the parental Fab” value was -8.54 kJ/mol.

B4: bH1 Fab variant W^H33-W^H98-M^H99-R^L30b (Fab, V domains shown)
VH: B2 VH with M102W, D103M
VL: B1 VL
For the molecule B4, the “ΔΔG_bind against the parental Fab” value is -8.66 kJ/mol.

B5: bH1 Fab variant Y^H33-M^H98-D^H99-R^L30b (Fab, V domains shown)
VH: not shown
VL: B1 VL
In the case of B5, the “ΔΔG_bind against the parental Fab” value was -6.61 kJ/mol.

B6: bH1 Fab variant W^H33-M^H98-M^H99-R^L30b (Fab, V domains shown)
VH: B2 VH with D103M
VL: B1 VL
Take B6: the “ΔΔG_bind against the parental Fab” value is -9.5 kJ/mol.

B7: bH1 Fab variant W^H33-F^H98-G^H99-R^L30b (Fab, V domains shown)
VH: not shown
VL: B1 VL
On to B7, for which the “ΔΔG_bind against the parental Fab” value was -4.56 kJ/mol.

B8: bH1 Fab variant Y^H33-W^H98-R^H99-R^L30b (Fab, V domains shown)
VH: not shown
VL: B1 VL
Consider B8, for which the “ΔΔG_bind against the parental Fab” value is -4.06 kJ/mol.

B9: bH1 Fab variant W^H33-W^H98-D^H99-R^L30b (Fab, V domains shown)
VH: B2 VH with M102W
VL: B1 VL
On to B9, for which the “ΔΔG_bind against the parental Fab” value is -10.8 kJ/mol.

B10: bH1 Fab variant W^H33-M^H98-G^H99-R^L30b (Fab, V domains shown)
VH: not shown
VL: B1 VL
B10: the “ΔΔG_bind against the parental Fab” value was -6.32 kJ/mol.

B11: bH1 Fab variant Y^H33-W^H98-D^H99-R^L30b (Fab, V domains shown)
VH: not shown
VL: B1 VL
Take B11: the “ΔΔG_bind against the parental Fab” value was -7.87 kJ/mol.

Values taken from publication PMC6748613 (mAbs, 2019).
